Measured values as given in paper PMC4356366, “Structures of the human Pals1 PDZ domain with and without ligand suggest gated access of Crb to the PDZ peptide-binding groove” (Acta Crystallographica Section D: Biological Crystallography, 2015).
Substitutions are numbered along the chain they refer to. In names and notes the source's numbering stands. Several values for one entry are separate records, joined by “and”; a condition that tells them apart may be missing. Identical values can stand only once. Entries after “also recorded” stand apart in the source; their conditions may differ. Ends that are not written are not given here.

T1: human Pals1 PDZ domain (Pals1^PDZ; residues 251–335) (Homo sapiens, UniProt Q8N3R9)
T1 construct: the PDZ domain of human Pals1 (Pals1^PDZ; residues 251–335); GST (N, cleaved yes); made in house; host or cells: Escherichia coli FB810
T1 sequence (Q8N3R9 251-335): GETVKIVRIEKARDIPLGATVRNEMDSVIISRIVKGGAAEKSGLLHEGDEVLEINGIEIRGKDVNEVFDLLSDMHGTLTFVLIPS

T2: human Pals1 PDZ domain (Pals1^PDZ; residues 251-335), wild type (human, UniProt Q8N3R9 251-335)
T2 chain: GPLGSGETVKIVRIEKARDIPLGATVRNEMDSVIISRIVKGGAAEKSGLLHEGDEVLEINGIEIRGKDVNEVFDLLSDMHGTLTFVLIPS

T3: human Pals1 PDZ domain (Pals1^PDZ; residues 251-335), wild type (human, UniProt Q8N3R9 251-335)
T3 construct: vector-derived residues Gly-Pro-Leu-Gly-Ser at the amino-terminus of Pals1^PDZ, left after removal of GST; Pals1 (MPP5), human, PDZ domain, residues 251-335; also called MPP5; protein associated with Lin-7; source: E. coli FB810, purified (glutathione Sepharose 4B, GST removed with GST-3C protease, Superdex S75)
T3 sequence: T2 chain

T4: human Pals1 PDZ domain F318A mutant (human, UniProt Q8N3R9 251-335, F318A)
T4 sequence: T2 chain with F73A

T5: human Pals1 PDZ domain F318C mutant (human, UniProt Q8N3R9 251-335, F318C)
T5 construct: Pals1 (MPP5), human, PDZ domain, residues 251-335, F318C; The methods name only the wild type and F318A; also called Pals1^PDZ F318C
T5 sequence (looked up): T1 sequence (Q8N3R9 251-335) with F68C

B1: human Pals1 PDZ domain (Pals1^PDZ; residues 251-335), wild type (domain or fragment)
chain: T2 chain
B2: fluorescein-labelled human Crb1 peptide, residues 1390-1406 (Crb^17) (peptide)
peptide: RVEMWNLMPPPAMERLI
modifications: also: fluorescein label, position not given here
notes: also called fluorescein-labelled Crb^17; Crumbs peptide (homologue 1)
B3: human Pals1 PDZ domain F318A mutant (domain or fragment)
chain: T2 chain with F73A
notes: vector-derived residues Gly-Pro-Leu-Gly-Ser at the amino-terminus of Pals1^PDZ, left after removal of GST (told for the wild type, same preparation); Pals1 (MPP5), human, PDZ domain, residues 251-335, F318A; also called Pals1^PDZ F318A; source: E. coli FB810, purified (glutathione Sepharose 4B, GST removed with GST-3C protease, Superdex S75)

Columns and labels:
[1] = biological target: T1, human Pals1 PDZ domain (Pals1^PDZ; residues 251–335); test: Fluorescence polarization binding assay, fluorescein-labelled Crb peptides with Pals1^PDZ; conditions: Fp, fluorescein-labelled peptide 50 nM, protein 0 to 300 µM, 20 mM HEPES pH 7.5, 100 mM NaCl, 1 mM DTT, read after 5 min; measured in parallel from the same Pals1 preparation; representative of three independent experiments
Procedure: Fluorescence polarization (Fp) assays were performed to determine the K d for each peptide following a previously described protocol (Guettler et al., 2008[▶]). Binding assays were performed in 20 mM HEPES pH 7.5, 100 mM NaCl, 1 mM DTT. The reaction mixtures contained a fixed concentration of fluorescein-labelled peptide (50 nM) and a protein concentration ranging from 0 to 300 µM depending on the dissociation constant. The 20 µl reactions were carried out in a 384-well plate and measured after 5 min using a Tecan Safire2 plate reader with excitation at 470 nm and emission at 525 nm. The anisotropy values were normalized and the K d values were determined using nonlinear regression with the graphics program Prism (Heyduk & Lee, 1990[▶]).
To characterize the interaction between the PDZ domain of human Pals1 (Pals1^PDZ; residues 251–335) and the intracellular segment of human Crb1 in vitro, we used fluorescence polarization (Fp) assays with a fluorescein-labelled peptide containing 17 carboxy-terminal residues 1390–1406 (defined hereafter as Crb^17). […] The Pals1^PDZ–Crb^17 interaction was stable to size-exclusion chromatography as detected from the Crb^17 intrinsic tryptophan fluorescence (data not shown). […]

[2] = biological target: Individual Crb^17 substitutions E1403A, R1404A and L1405A; test: fluorescence polarisation; fixed fluorescein-labelled peptide (50 nM), Pals1 PDZ protein titrated 0 to 300 µM; 20 mM HEPES pH 7.5, 100 mM NaCl, 1 mM DTT; 20 µl in 384-well plate, read after 5 min
[3] = biological target: T2, human Pals1 PDZ domain (Pals1^PDZ; …); test: FP
[4] = biological target: T3, human Pals1 PDZ domain (Pals1^PDZ; …); test: fluorescence polarisation; fixed fluorescein-labelled peptide (50 nM), Pals1 PDZ protein titrated 0 to 300 µM; 20 mM HEPES pH 7.5, 100 mM NaCl, 1 mM DTT; 20 µl in 384-well plate, read after 5 min; conditions: both partners purified
[5] = biological target: T4, human Pals1 PDZ domain F318A mutant; test: FP
[6] = biological target: T5, human Pals1 PDZ domain F318C mutant; test: fluorescence polarisation; fixed fluorescein-labelled peptide (50 nM), Pals1 PDZ protein titrated 0 to 300 µM; 20 mM HEPES pH 7.5, 100 mM NaCl, 1 mM DTT; 20 µl in 384-well plate, read after 5 min; conditions: both partners purified
[7] = biological target: B2; test: as above; conditions: both partners purified

Molecule	Kd [3]	binding result [4]	further results
Crb^17 I1406A: Crb^17 peptide with carboxy-terminal Ile1406 replaced by alanine, fluorescein-labelled (RVEMWNLMPPPAMERLA; also: fluorescein label, position not given here)	–	–	dissociation constant (Kd) for Pals1^PDZ [1]: completely abolished detectable binding; also recorded: Not detectable
B1	–	–	Kd [2]: 52 to 55 µM
RVEMWNLMPPPAMERAI (also: fluorescein label, position not given here) [fluorescein-labelled Crb^17 L1405A]	55.3 µM	binds	–
RVEMWNLMPPPAAERLI (also: fluorescein label, position not given here) [fluorescein-labelled Crb^17 M1402A]	8.1 µM	binds	–
AMERLI (also: fluorescein label, position not given here) [fluorescein-labelled shorter Crb1 peptide spanning residues 1401-1406 (Crb^6)]	16.8 µM	binds	–
B2	–	–	Kd [5]: 1800 nM; Kd [4]: 9.2 µM and 12.4 µM; Kd [6]: 5 µM
B3	–	–	fold tighter binding than wild-type Pals1^PDZ [7]: 5 fold
RVEMWNLMPPPAMARLI (also: fluorescein label, position not given here) [fluorescein-labelled Crb^17 E1403A]	53.1 µM	binds	–
RVEMWNLMPPPAMEALI (also: fluorescein label, position not given here) [fluorescein-labelled Crb^17 R1404A]	51.5 µM	binds	–
